Test results as given in US10590193 (dated 2020).
Where a chain is given by its changes, count along the chain named. In names and notes the source's numbering stands. Where two headings read alike, the source gives them in different places. Values belong to the binder of their own block, whether it stands above or below them.

Experiments:
[1] = target: T1, human VEGF165 (human, UniProt P15692); experiment: SPR, pH 5
T1 chain: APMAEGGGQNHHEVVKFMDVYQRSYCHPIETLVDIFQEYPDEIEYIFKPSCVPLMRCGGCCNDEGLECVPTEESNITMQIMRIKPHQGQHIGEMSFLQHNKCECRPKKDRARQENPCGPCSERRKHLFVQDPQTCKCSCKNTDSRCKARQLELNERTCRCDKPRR

[2] = target: T2, human VEGF110 (human, UniProt P15692); experiment: SPR, pH 5
T2 chain: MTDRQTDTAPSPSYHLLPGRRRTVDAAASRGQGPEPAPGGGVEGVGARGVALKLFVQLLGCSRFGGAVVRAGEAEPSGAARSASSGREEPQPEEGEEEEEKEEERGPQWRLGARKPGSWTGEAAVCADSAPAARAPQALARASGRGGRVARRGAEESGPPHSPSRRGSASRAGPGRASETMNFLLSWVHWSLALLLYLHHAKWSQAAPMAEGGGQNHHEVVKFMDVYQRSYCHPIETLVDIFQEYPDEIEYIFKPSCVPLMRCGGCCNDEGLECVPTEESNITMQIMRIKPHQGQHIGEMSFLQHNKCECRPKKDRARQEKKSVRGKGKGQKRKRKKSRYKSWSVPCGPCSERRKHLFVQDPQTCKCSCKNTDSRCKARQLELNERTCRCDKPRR

[3] = target: T1, human VEGF165; experiment: SPR, pH 7.4
[4] = target: T3, human PlGF (human, UniProt P49763); experiment: SPR, pH 5
T3 chain: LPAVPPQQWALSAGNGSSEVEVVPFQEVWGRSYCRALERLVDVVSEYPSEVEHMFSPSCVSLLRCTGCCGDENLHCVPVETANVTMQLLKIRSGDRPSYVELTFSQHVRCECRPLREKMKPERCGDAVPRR

[5] = target: T4, rat VEGF164 (rat, UniProt P16612); experiment: SPR, pH 5
T4 chain: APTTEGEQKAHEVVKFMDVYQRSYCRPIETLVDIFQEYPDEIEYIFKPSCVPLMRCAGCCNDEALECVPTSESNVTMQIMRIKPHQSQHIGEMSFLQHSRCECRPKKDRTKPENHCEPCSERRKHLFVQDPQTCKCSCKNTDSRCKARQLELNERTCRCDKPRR

[6] = target: T5, mouse VEGF164 (mouse, UniProt Q00731); experiment: SPR, pH 5
T5 chain: T4 chain with A10S, V14I, V75I

[7] = target: T6, human VEGF121 (human, UniProt P15692); experiment: SPR, pH 5
T6 chain: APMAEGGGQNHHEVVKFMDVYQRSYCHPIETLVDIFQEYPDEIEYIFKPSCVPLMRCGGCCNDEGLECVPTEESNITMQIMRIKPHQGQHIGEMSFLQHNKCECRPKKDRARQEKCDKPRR

[8] = target: T5, mouse VEGF164; experiment: SPR, pH 5
[9] = target: T4, rat VEGF164; experiment: SPR, pH 5
[10] = target: T1, human VEGF165; experiment: SPR, pH 5

B1: 509-min (antibody, V domains shown)
VH: EVQLVESGGGLVQPGGSLRLSCAASGFSLSSYYMCWVRQAPGKGLEWVSCLDYVGDTDYASWAKGRFTISRDNSKNTLYLQMNSLRAEDTAVYYCAKTDDSRGWGLNIWGQGTLVTVSS
VL: EIVMTQSPSTLSASVGDRVIITCQASQNIRIWLSWYQQKPGKAPKLLIYKASTLESGVPSRFSGSGSGAEFTLTISSLQPDDFATYYCQNNAHYSTNGGTFGQGTKLTVLG
Kd [1]: 1.82 nM
Kd [2]: 1.65 nM
Kd [3]: 3.06 nM
binding result [4]: no binding
Kd [5]: 2.41 nM
Kd [6]: 1.63 nM
Kd [7]: 1.28 nM

B2: 567-max (antibody, V domains shown)
VH: EVQLVESGGGLVQPGGSLRLSCSVSGFSLSDYYMCWVRQAPGKGLEWVGCLDYFGSTDDASWAKGRFTISKDTSKNTVYLQMNSLRAEDTAVYYCARTDDSRGWGLNIWGQGTLVTVSS
VL: B1 VL with S26D, N28S, R30Y, A69T, E70Q
Kd [1]: 0.188 nM
Kd [2]: 0.0327 nM
Kd [3]: 0.143 nM
binding result [4]: no binding
Kd [5]: 0.149 nM
Kd [6]: 0.0929 nM
Kd [7]: 0.0511 nM

B3: 509-maxII (antibody, V domains shown)
VH: B1 VH with A23T, C35S, S49G, C50I, R71K, N73A, L78V, K97R
VL: B1 VL with A69T
Kd [1]: 3.37 nM
Kd [2]: 1.48 nM
Kd [3]: 2.61 nM
binding result [4]: no binding
Kd [5]: 1.81 nM
Kd [6]: 1.73 nM
Kd [7]: 1.37 nM

B4: 509-max (antibody, V domains shown)
VH: B1 VH with A23T, S49G, R71K, N73A, L78V, K97R
VL: B1 VL with A69T
Kd [1]: 1.21 nM
Kd [2]: 0.363 nM
Kd [3]: 0.378 nM
binding result [4]: no binding
Kd [5]: 1.65 nM
Kd [6]: 1.45 nM
Kd [7]: 0.335 nM

B13: 511-min (antibody, V domains shown)
VH: EVQLVESGGGLVQPGGSLRLSCAASGFSLNTYYMNWVRQAPGKGLEWVSIIAPDDTTYYASWAKSRFTISRDNSKNTLYLQMNSLRAEDTAVYYCAKSGDTTAWGADIWGQGTLVTVSS
VL: EIVMTQSPSTLSASVGDRVIITCQASQSINIWCSWYQQKPGKAPKLLIYRASTLASGVPSRFSGSGSGAEFTLTISSLQPDDFATYYCQANYAYSAGYGAAFGQGTKLTVLG
Kd [1]: 2.53 nM
Kd [2]: 1.45 nM
Kd [3]: 1.31 nM
binding result [4]: no binding
Kd [5]: 2.04 nM
Kd [6]: 1.64 nM
Kd [7]: 1.24 nM

B14: 511min_max (904) (antibody, V domains shown)
VH: B13 VH with A23T, A24V, S49G, F67S, N73T, L78V, K97R
VL: B13 VL
Kd [10]: 0.278 nM

B15: 511max_min (905) (antibody, V domains shown)
VH: B13 VH
VL: B13 VL with C33L, A69T
Kd [10]: 1.48 nM

Now from value to binder:

Kd [1]: 0.23 nM
Kd [2]: 0.0251 nM
Kd [3]: 0.631 nM
binding result [4]: no binding
Kd [5]: 0.279 nM
Kd [6]: 0.17 nM
Kd [7]: 0.0241 nM
B5: 567-min (antibody, V domains shown)
VH: B1 VH with S31D, V54F, D56S, Y59D
VL: B1 VL with S26D, N28S, R30Y

Kd [8]: 0.608 nM
Kd [9]: 0.845 nM
Kd [10]: 0.576 nM
B6: 578minmax FW1.4_DHP (961) (antibody, V domains shown)
VH: EVQLVESGGGSVQPGGSLRLSCTASGFSLTDYYYMTWVRQAPGKGLEWVGFIDPDDDPYYATWAKGRFTISRDTSKNTVYLQMNSLRAEDTATYYCAGGDHNSGWGLDIWGQGTTVTVSS
VL: EIVMTQSPSTLSASVGDRVIITCQASEIIHSWLAWYQQKPGKAPKLLIYLASTLASGVPSRFSGSGSGAEFTLTISSLQPDDFATYYCQNVYLASTNGANFGQGTKLTVLG

Kd [8]: 1.46 nM
Kd [9]: 1.82 nM
B7: 578min_max T84N_V89L_DHP (1017) (antibody, V domains shown)
VH: B6 VH with T74N, V79L
VL: B6 VL

Kd [1]: 0.439 nM
Kd [2]: 1.38 nM
Kd [3]: 0.0237 nM
binding result [4]: no binding
Kd [5]: 0.598 nM
Kd [6]: 0.429 nM
Kd [7]: 0.95 nM
B8: 578-max (antibody, V domains shown)
VH: B6 VH with S11L, T93V, T115L
VL: B6 VL with A69T, E70Q

Kd [10]: 0.971 nM
B9: 578min_max T84N (991) (antibody, V domains shown)
VH: B6 VH with S11L, T74N, T93V, T115L
VL: B6 VL

Kd [8]: 1.53 nM
Kd [9]: 1.89 nM
Kd [10]: 1.59 nM
B10: 578min_max T84N_V89L (1008) (antibody, V domains shown)
VH: B6 VH with S11L, T74N, V79L, T93V, T115L
VL: B6 VL

Kd [1]: 9.01 nM
Kd [2]: 11.4 nM
Kd [3]: 0.181 nM
binding result [4]: no binding
Kd [5]: 10.7 nM
Kd [6]: 10.7 nM
Kd [7]: 9.16 nM
B11: 578-min (antibody, V domains shown)
VH: B6 VH with S11L, T23A, G50S, T74N, V79L, T93V, G98K, T115L
VL: B6 VL

Kd [10]: 1.2 nM
B12: 578min_max V89A (978) (antibody, V domains shown)
VH: B6 VH with S11L, V79A, T93V, T115L
VL: B6 VL

Kd [10]: 0.2 nM
B16: 578 wildtype C-His (798) (antibody, V domains shown)
VH: QSVEESGGRLVTPGTPLTLTCTASGFSLTDYYYMTWVRLAPGKGLEYIGFIDPDDDPYYATWAKGRFTISRTSTTVNLKMTSPTTEDTATYFCAGGDHNSGWGLDIWGPGTLVTVSL
VL: DVVMTQTPSSVSAAVGDTVTINCQASEIIHSWLAWYQQKPGQPPKLLIYLASTLASGVPSRFKGSGSGTQFTLTISDLECADAAIYYCQNVYLASTNGANFGGGTEVVVK
